± gives the standard deviation of the averaged measurements.
Tested on: ATP
Assay: switch fluorescence ratio, 500 uM ATP over buffer (Cy3 cluster intensity, sum of 5 cycles each) (fold (ratio)); higher = stronger signal-on switching upon ATP binding; sequences stand for … in TCGTCGGCAGCGTCAGATGTGTATAAGAGACAGTTTTTTTTTTTTTTTTTTTTTTTTT…TC
Settings: aptamer strand: ATP DNA aptamer (quencher-CACCTGGGGGAGTATTGCGGAGGAAGG + anchor), 100 nM annealed; ATP concentration: 500 uM
Method in brief: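 Exposure to 500 uM ATP lasted 15 min at 22 °C before imaging, and a selection-buffer image was taken beforehand, for Cy3-labelled switching-strand clusters on a modified Illumina MiSeq flow-cell annealed to 100 nM quencher-labelled ATP aptamer. Five buffer/ATP cycles were run with NaOH stripping and re-annealing between them. The fluorescence ratio per cluster is summed target-cycle over summed buffer-cycle Cy3 intensity, averaged per switch-domain sequence. Clusters outside 100-1000 RFU were excluded.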

Row | Sequence | switch fluorescence ratio
1 | ACCGTTACTT | 1.24 ± 0.065
2 | ACCGTTCACG | 1.02 ± 0.031
3 | ACCGTTCTGA | 1.016 ± 0.0092
4 | ACCTACCTCT | 1.48 ± 0.14
5 | ACCTACTGAG | 1.351 ± 0.0076
6 | ACCTAGTCGG | 1.01 ± 0.015
7 | ACCTAGTGGG | 1.005 ± 0.0087
8 | ACCTATGAGG | 1.02 ± 0.029
9 | ACCTATTTTT | 1.01 ± 0.017
10 | ACCTCCAACT | 1.179 ± 0.0092
11 | ACCTGAATTA | 1 ± 0.035
12 | ACCTGATAGT | 1.044 ± 0.0066
13 | ACCTGCAATT | 2.96 ± 0.044
14 | ACCTGGAATT | 1.01 ± 0.031
15 | ACCTGGGGGA | 1.07 ± 0.11
16 | ACCTGGTCTC | 1.07 ± 0.027
17 | ACCTGTATGG | 1.03 ± 0.044
18 | ACCTGTGGGG | 1 ± 0.027
19 | ACCTTGAATT | 1 ± 0.0029
20 | ACCTTGATGG | 0.976 ± 0.077
21 | ACCTTGGGAA | 1.01 ± 0.017
22 | ACCTTGTGCA | 1.02 ± 0.04
23 | ACCTTTAACT | 1.03 ± 0.017
24 | ACCTTTGGGC | 0.996 ± 0.039
25 | ACCTTTGTTT | 1.001 ± 0.0054

Row | Sequence | switch fluorescence ratio
26 | ACCTTTTACG | 1.15 ± 0.072
27 | ACCTTTTGTA | 1 ± 0.032
28 | ACGAAAATTA | 1.12 ± 0.14
29 | ACGAAAGGTG | 1.58 ± 0.072
30 | ACGAACTTGA | 1.19 ± 0.055
31 | ACGAATCCTT | 1.04 ± 0.013
32 | ACGAATGCGG | 0.941 ± 0.042
33 | ACGAATTTGT | 1.03 ± 0.038
34 | ACGAGACAGC | 1.191 ± 3.6e-05
35 | ACGAGAGTTG | 0.975 ± 0.021
36 | ACGAGCGATT | 1.7 ± 0.058
37 | ACGAGCTAGG | 1.13 ± 0.026
38 | ACGAGGGGAG | 1.02 ± 0.016
39 | ACGAGGGGCG | 1 ± 0.045
40 | ACGAGGTTAA | 1.01 ± 0.018
41 | ACGAGGTTGT | 0.982 ± 0.025
42 | ACGAGTACGG | 1.1 ± 0.025
43 | ACGAGTTAGG | 1.044 ± 0.0014
44 | ACGATAATTT | 1.18 ± 0.035
45 | ACGATCTGTG | 1.03 ± 0.033
46 | ACGATCTGTT | 1.0155 ± 0.00017
47 | ACGATGGCCT | 1 ± 0.014
48 | ACGATGGGCA | 1.05 ± 0.015
49 | ACGATGTGTT | 1.01 ± 0.025
50 | ACGATTTATC | 1.01 ± 0.016

Row | Sequence | switch fluorescence ratio
51 | ACGATTTTGC | 1.04 ± 0.033
52 | ACGATTTTTT | 0.993 ± 0.013
53 | ACGCATGGGT | 1.04 ± 0.028
54 | ACGCATTCAT | 1.14 ± 0.027
55 | ACGCCCGAAC | 1.452 ± 0.013
56 | ACGCCCGGGT | 1.08 ± 0.051
57 | ACGCCTTATT | 1.03 ± 0.02
58 | ACGCGAGTAT | 1.05 ± 0.019
59 | ACGCGCGTGT | 1.02 ± 0.017
60 | ACGCGGAGTG | 1.02 ± 0.016
61 | ACGCGGATTG | 1.002 ± 0.0017
62 | ACGCGGTA | 1.02 ± 0.058
63 | ACGCGGTGAC | 1.09 ± 0.025
64 | ACGCGTGAAG | 1.03 ± 0.021
65 | ACGCTCAGGT | 1.29 ± 0.041
66 | ACGCTCCAGC | 1.056 ± 0.0053
67 | ACGCTGCTAC | 4.48 ± 0.3
68 | ACGCTTTATG | 1.03 ± 0.04
69 | ACGCTTTTTT | 1.01 ± 0.024
70 | ACGGAAAACG | 1.023 ± 0.0093
71 | ACGGAAGGGC | 1.11 ± 0.059
72 | ACGGAGGGAA | 1.07 ± 0.085
73 | ACGGCAAAGG | 1.155 ± 0.0063
74 | ACGGCTCAGA | 1.013 ± 0.0079
75 | ACGGCTTTTG | 1.025 ± 0.009

Row | Sequence | switch fluorescence ratio
76 | ACGGGAAAGT | 1.06 ± 0.089
77 | ACGGGAGAGG | 1.02 ± 0.035
78 | ACGGGAGTGG | 0.998 ± 0.011
79 | ACGGGATTTG | 0.9822 ± 0.0073
80 | ACGGGATTTT | 1.03 ± 0.026
81 | ACGGGCCCGA | 1.02 ± 0.029
82 | ACGGGGAAAA | 1.03 ± 0.036
83 | ACGGGGAAAG | 0.9916 ± 0.0019
84 | ACGGGGACTG | 1.0927 ± 0.00086
85 | ACGGGGATCA | 0.981 ± 0.045
86 | ACGGGGATTT | 1.01 ± 0.019
87 | ACGGGGCCGC | 0.994 ± 0.045
88 | ACGGGGCTGG | 1.02 ± 0.048
89 | ACGGGGCTGT | 0.996 ± 0.017
90 | ACGGGGGACA | 1.02 ± 0.035
91 | ACGGGGGAGA | 1.24 ± 0.35
92 | ACGGGGGGTA | 1.02 ± 0.035
93 | ACGGGGGTTG | 1.03 ± 0.06
94 | ACGGGGGTTT | 0.997 ± 0.015
95 | ACGGGGTAGT | 1.02 ± 0.024
96 | ACGGGGTCGG | 1.01 ± 0.044
97 | ACGGGGTGCG | 0.986 ± 0.032
98 | ACGGGGTTCT | 0.965 ± 0.032
99 | ACGGGTAATG | 1.01 ± 0.035
100 | ACGGGTTTTG | 1.03 ± 0.024
